Measured values reported in US9957320 (dated 2018).

How the values were obtained:
human IL-13 [1] = target: T1, human IL-13 (human, UniProt P35225); assay: SPR, average
human IL-13 [2] = target: T1, human IL-13; assay: SPR, 25C, average of 3 determinations

T1 sequence (P35225 25-146): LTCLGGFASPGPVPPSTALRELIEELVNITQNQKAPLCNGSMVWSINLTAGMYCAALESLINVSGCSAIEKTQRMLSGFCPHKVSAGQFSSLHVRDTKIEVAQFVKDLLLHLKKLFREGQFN

B1: Ab652 Fab (antibody, V domains shown)
VH: QVTLKESGPVLVKPTETLTLTCTVSGFSLSNARMGVSWIRQPPGKALEWLAHIFSNDEKSYSTSLKSRLTISKDTSKSQVVLTMTNMDPVDTATYYCARIYFDYWGQGTLVTVS
VL: DIQMTQSPSSLSASVGDRVTITCLASEDISNYLAWYQQKPGKAPKLLIYHTSRLQDGVPSRFSGSGSGTDFTLTISSLQPEDFATYYCQQGYRFPLTFGGGTKVEIK
For B1, the Kd (human IL-13 [1]) was 0.0134 nM and the Kd (human IL-13 [2]) was 0.015 nM.
